Reference: US20250262210A1 (TRUSTEES OF COLUMBIA UNIVERSITY IN THE CITY OF NEW YORK, published 2025)

How the values were obtained:
Assay in all cases: IP/MS, LZTR1 wild type-FLAG, U87
[1] = biological target: DPP9 (human, UniProt Q86TI2 2-863, limits assumed)
Procedure, shortened: (§1)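 Read-out: spectral counts from LC-MS/MS (Orbitrap Fusion) after MaxQuant identification. Variable modifications were Met oxidation, protein N-terminal acetylation and N/Q deamidation.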

[2] = biological target: T1, ABR (human, UniProt Q12979 1-859, limits assumed)
T1 sequence (looked up): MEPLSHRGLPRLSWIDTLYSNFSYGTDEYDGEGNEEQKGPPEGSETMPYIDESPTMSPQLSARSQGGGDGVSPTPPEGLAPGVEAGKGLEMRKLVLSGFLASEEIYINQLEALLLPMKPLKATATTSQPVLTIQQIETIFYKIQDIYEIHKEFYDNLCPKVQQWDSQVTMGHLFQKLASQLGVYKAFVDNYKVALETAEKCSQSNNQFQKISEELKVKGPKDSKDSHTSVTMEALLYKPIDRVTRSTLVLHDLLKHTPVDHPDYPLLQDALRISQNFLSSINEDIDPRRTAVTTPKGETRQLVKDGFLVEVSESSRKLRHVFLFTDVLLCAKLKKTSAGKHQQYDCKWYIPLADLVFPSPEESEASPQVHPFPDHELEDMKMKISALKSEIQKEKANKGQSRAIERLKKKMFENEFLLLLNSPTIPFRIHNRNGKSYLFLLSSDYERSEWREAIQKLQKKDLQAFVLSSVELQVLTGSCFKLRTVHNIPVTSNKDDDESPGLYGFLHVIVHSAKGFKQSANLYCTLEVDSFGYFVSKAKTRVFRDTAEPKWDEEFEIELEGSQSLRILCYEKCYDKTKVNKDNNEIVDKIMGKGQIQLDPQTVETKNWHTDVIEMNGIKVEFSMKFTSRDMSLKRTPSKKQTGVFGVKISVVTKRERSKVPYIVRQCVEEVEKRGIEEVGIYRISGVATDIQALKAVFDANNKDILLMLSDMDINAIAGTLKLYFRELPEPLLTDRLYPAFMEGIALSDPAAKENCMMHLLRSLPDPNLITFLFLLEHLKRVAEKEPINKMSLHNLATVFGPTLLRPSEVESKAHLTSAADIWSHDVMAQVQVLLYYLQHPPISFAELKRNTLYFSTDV
Procedure, shortened: as §1

[3] = biological target: KIF1B (human, UniProt O60333 2-1816, limits assumed)
Procedure, shortened: as §1

[4] = biological target: ASXL1 (human, UniProt Q8IXJ9 1-1541, limits assumed)
Procedure, shortened: as §1

[5] = biological target: T2, SEC24D (human, UniProt O94855 1-1032, limits assumed)
T2 sequence (looked up): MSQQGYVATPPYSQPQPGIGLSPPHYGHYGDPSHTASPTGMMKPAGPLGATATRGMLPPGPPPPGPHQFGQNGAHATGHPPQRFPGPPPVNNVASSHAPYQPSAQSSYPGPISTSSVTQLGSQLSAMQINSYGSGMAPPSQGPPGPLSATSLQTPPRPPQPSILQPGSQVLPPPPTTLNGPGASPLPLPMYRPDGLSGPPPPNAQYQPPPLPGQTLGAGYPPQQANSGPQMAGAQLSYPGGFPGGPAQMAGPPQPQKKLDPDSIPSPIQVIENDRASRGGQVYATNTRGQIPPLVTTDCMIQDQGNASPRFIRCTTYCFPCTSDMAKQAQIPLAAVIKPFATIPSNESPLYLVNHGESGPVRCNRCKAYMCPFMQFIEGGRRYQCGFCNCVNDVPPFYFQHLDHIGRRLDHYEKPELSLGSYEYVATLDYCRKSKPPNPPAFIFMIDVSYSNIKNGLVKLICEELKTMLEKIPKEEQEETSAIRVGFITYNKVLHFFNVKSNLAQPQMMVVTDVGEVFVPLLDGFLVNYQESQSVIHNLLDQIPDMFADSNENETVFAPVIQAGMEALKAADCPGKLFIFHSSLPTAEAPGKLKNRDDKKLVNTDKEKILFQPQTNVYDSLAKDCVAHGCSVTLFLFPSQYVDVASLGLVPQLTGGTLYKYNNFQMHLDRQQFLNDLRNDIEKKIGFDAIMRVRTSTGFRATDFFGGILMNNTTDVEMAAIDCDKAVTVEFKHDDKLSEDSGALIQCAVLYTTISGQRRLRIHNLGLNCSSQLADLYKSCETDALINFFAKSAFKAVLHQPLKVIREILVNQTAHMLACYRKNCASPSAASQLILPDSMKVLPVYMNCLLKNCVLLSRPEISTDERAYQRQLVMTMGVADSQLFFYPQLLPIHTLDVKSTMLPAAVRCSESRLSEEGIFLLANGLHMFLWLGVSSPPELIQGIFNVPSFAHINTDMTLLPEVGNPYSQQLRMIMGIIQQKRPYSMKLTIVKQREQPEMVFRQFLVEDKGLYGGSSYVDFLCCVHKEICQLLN
Procedure, shortened: as §1

[6] = biological target: RTTN (human, UniProt Q86VV8 1-2226, limits assumed)
Procedure, shortened: as §1

Chain of KIF1B (O60333 2-1816 limits assumed): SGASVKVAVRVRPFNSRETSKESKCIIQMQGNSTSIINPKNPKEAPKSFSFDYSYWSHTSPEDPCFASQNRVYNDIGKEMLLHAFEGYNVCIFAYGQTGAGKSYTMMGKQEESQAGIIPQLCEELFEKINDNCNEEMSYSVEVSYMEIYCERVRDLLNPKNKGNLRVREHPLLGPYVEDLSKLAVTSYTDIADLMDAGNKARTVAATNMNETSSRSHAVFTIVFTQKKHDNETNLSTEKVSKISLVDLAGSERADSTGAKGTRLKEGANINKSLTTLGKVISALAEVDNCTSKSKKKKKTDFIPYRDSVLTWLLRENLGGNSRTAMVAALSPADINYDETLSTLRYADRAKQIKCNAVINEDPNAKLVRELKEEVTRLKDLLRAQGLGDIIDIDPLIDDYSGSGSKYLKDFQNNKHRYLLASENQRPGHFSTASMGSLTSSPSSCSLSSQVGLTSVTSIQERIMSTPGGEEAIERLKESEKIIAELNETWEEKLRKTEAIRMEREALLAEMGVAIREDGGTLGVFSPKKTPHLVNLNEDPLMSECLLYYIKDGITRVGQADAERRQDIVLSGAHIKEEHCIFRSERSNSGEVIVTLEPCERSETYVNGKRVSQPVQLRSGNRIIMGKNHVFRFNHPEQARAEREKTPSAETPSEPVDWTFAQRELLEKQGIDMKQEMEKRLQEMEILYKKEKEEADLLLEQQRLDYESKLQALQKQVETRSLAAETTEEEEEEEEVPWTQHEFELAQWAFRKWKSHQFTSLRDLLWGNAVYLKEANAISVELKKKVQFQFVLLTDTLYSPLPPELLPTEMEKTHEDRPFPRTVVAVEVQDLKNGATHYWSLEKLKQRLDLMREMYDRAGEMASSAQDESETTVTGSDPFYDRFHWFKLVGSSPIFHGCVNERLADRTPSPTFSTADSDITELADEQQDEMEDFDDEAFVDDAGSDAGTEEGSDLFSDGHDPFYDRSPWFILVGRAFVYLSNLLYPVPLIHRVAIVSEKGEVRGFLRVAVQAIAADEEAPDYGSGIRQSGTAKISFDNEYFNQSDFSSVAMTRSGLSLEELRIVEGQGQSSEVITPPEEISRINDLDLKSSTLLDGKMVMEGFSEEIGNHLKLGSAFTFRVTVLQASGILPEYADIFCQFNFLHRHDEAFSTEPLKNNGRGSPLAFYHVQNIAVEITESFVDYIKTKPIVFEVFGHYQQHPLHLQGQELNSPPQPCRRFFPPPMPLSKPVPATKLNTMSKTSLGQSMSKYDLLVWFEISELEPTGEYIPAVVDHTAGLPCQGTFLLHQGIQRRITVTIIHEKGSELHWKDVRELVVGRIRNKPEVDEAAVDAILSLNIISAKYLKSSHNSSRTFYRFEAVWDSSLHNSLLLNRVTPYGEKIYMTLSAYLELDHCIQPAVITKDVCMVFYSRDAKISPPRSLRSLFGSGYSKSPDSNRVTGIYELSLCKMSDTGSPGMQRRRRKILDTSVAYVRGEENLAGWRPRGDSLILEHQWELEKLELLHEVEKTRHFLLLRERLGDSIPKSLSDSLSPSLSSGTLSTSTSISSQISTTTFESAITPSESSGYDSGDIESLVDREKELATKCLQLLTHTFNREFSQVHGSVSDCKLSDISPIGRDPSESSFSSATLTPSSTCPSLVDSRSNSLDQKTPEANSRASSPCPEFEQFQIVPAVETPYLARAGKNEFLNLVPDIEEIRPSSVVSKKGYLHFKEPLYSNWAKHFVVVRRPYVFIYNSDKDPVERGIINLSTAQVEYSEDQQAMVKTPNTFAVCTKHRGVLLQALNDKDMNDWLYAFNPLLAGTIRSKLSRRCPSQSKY
Chain of DPP9 (Q86TI2 2-863 limits assumed): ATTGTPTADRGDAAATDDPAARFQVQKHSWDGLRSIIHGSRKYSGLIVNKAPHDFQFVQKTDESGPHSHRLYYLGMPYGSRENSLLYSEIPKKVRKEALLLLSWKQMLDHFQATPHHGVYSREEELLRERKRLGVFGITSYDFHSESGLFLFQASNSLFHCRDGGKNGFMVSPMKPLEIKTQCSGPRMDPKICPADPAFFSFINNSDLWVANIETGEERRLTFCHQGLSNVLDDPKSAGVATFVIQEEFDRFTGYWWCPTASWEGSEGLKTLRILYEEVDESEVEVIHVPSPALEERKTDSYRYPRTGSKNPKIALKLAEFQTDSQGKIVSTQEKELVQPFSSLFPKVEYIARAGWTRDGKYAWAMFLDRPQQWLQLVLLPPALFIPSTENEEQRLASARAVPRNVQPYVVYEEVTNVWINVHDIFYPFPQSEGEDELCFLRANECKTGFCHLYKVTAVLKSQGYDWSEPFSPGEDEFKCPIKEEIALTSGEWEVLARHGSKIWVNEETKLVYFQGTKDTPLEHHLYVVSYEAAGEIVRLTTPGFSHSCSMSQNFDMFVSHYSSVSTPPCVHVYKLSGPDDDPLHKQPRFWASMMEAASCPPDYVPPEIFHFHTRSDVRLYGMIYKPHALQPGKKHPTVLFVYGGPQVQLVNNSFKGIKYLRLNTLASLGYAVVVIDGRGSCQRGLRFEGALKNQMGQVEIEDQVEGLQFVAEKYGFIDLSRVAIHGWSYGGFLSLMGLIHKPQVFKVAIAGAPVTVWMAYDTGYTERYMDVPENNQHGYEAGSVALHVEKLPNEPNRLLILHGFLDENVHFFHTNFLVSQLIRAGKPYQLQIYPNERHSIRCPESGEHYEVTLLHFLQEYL
Chain of RTTN (Q86VV8 whole entry): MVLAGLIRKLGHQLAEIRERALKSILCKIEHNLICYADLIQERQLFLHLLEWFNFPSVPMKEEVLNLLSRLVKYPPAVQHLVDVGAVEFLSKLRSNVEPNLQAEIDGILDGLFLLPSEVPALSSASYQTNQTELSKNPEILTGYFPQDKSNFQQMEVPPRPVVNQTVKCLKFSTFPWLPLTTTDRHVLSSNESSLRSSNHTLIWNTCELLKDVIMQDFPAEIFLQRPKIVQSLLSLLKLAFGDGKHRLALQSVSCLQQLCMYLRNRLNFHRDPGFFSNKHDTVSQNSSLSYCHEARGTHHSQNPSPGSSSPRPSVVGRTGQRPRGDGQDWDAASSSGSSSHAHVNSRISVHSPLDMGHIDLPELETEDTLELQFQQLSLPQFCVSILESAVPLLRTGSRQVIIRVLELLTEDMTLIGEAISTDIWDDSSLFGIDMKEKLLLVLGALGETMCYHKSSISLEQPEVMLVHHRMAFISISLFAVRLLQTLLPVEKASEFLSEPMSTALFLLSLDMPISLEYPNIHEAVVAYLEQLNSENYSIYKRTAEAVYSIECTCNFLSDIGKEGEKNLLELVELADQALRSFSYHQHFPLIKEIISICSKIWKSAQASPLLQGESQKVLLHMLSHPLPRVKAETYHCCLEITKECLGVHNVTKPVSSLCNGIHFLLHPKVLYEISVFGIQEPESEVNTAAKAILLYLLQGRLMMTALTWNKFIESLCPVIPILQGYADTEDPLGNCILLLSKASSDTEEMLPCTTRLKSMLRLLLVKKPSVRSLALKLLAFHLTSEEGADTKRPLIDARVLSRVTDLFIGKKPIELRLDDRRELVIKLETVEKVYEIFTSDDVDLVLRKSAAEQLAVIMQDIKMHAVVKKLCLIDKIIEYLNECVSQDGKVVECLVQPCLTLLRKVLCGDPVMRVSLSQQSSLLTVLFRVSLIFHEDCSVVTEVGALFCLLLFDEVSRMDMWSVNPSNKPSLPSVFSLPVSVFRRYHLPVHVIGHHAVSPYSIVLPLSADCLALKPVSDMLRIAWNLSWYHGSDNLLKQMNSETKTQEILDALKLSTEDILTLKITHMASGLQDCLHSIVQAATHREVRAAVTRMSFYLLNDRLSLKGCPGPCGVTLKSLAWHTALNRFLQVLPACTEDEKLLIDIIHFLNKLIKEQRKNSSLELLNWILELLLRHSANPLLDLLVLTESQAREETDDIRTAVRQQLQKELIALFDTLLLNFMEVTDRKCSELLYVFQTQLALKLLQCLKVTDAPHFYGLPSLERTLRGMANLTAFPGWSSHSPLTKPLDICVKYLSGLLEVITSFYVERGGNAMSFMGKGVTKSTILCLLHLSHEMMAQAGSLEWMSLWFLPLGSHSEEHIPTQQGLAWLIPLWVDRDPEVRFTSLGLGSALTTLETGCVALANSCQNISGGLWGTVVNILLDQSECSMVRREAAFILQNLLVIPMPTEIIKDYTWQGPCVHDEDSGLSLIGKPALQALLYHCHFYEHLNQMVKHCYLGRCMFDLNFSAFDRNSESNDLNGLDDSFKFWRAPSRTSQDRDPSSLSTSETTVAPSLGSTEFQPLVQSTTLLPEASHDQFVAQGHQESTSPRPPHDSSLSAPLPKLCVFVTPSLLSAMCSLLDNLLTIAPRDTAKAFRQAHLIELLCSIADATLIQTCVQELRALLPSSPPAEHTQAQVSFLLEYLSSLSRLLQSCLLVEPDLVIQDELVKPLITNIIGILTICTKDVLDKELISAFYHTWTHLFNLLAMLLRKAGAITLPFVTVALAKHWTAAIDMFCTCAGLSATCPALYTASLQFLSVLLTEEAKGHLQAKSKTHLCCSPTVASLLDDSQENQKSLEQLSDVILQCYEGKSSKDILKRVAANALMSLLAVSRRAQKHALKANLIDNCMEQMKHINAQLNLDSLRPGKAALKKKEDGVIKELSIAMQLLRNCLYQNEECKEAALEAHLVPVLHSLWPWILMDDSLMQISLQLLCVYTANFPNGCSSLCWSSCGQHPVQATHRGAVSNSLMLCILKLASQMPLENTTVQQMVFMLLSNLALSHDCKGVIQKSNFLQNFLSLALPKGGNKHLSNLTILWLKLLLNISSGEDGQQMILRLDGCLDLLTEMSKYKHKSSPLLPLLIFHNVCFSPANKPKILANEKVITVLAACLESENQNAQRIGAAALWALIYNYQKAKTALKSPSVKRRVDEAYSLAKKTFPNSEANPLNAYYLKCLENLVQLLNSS

binding result [1]: binds
binding result [2]: binds
binding result [3]: binds
binding result [4]: binds
binding result [5]: binds
binding result [6]: binds
B1: LZTR1-FLAG (other, human, UniProt Q8N653 1-840, looked up)
chain: MAGPGSTGGQIGAAALAGGARSKVAPSVDFDHSCSDSVEYLTLNFGPFETVHRWRRLPPCDEFVGARRSKHTVVAYKDAIYVFGGDNGKTMLNDLLRFDVKDCSWCRAFTTGTPPAPRYHHSAVVYGSSMFVFGGYTGDIYSNSNLKNKNDLFEYKFATGQWTEWKIEGRLPVARSAHGATVYSDKLWIFAGYDGNARLNDMWTIGLQDRELTCWEEVAQSGEIPPSCCNFPVAVCRDKMFVFSGQSGAKITNNLFQFEFKDKTWTRIPTEHLLRGSPPPPQRRYGHTMVAFDRHLYVFGGAADNTLPNELHCYDVDFQTWEVVQPSSDSEVGGAEVPERACASEEVPTLTYEERVGFKKSRDVFGLDFGTTSAKQPTQPASELPSGRLFHAAAVISDAMYIFGGTVDNNIRSGEMYRFQFSCYPKCTLHEDYGRLWESRQFCDVEFVLGEKEECVQGHVAIVTARSRWLRRKITQARERLAQKLEQEAAPVPREAPGVAAGGARPPLLHVAIREAEARPFEVLMQFLYTDKIKYPRKGHVEDVLLIMDVYKLALSFQLCRLEQLCRQYIEASVDLQNVLVVCESAARLQLSQLKEHCLNFVVKESHFNQVIMMKEFERLSSPLIVEIVRRKQQPPPRTPLDQPVDIGTSLIQDMKAYLEGAGAEFCDITLLLDGHPRPAHKAILAARSSYFEAMFRSFMPEDGQVNISIGEMVPSRQAFESMLRYIYYGEVNMPPEDSLYLFAAPYYYGFYNNRLQAYCKQNLEMNVTVQNVLQILEAADKTQALDMKRHCLHIIVHQFTKVSKLPTLRSLSQQLLLDIIDSLASHISDKQCAELGADI
notes: Expressed in HEK 293T, HeLa or U87 cells; used as cell lysate; also called LZTR1 wild type-FLAG; LZTR1 WT; not shown: FLAG tag at the C-terminus
